Residue numbers refer to the chain shown, from its start.
B1: SB142: CD73-specific alpaca VHH clone, family 2 in Tables 1-2, SEQ ID NO:73; tested as rabbit IgG hcAb (antibody)
heavy: QVQLVESGGGLVQPGGSLRLSCAASGFTFINYHMSWLRQAPGKGLEWVSEIHSRGDITSYTNSVKGRFTISRDNAKNTLYLQMNSLKFDDTAVYYCARSRDLFGEGEYDYWGRGTQVTVSS
modifications: left off: a dimerising Fc or GST
notes: tested as rabbit IgG hcAb
B2: SB116-188-Alb: biparatopic SB116-188-Alb trimers, anti-CD73 nanobody heterotrimer (protein)
chain (part 1 of 2): QVKLQESGGGRVQTGGSLRLSCAASGISFSITTMYWYRQAPGEQRQLVALITDRGNTYYVDSVKGRFTISRDDSKNTVYLQMNDLKPEDTAVYFCNSIPGNDWGQGTQVTVSS
chain (part 2 of 2): B1 heavy with P14A, G44E, L45R, W47F, S49A, L79V, F88P, D89E, G104N
modifications: left off: small tags and cut ends; another chain or arm of the molecule
notes: biparatopic SB116-188-Alb trimers, anti-CD73 nanobody heterotrimer

Tests used:
human CD73 = biological target: T1, human CD73 (Homo sapiens, UniProt P21589); assay: Flow cytometry binding of rabbit IgG hcAbs to human CD73-transfected HEK cells; design: key: binding to human (h) and mouse (m) CD73; binding to human (h) and mouse (m) CD73; details: family representative clone; h = binds human CD73, m = binds mouse CD73
T1 construct: expressed in transfected cells; stably transfected in method 5.1)
T1 sequence (P21589 27-549): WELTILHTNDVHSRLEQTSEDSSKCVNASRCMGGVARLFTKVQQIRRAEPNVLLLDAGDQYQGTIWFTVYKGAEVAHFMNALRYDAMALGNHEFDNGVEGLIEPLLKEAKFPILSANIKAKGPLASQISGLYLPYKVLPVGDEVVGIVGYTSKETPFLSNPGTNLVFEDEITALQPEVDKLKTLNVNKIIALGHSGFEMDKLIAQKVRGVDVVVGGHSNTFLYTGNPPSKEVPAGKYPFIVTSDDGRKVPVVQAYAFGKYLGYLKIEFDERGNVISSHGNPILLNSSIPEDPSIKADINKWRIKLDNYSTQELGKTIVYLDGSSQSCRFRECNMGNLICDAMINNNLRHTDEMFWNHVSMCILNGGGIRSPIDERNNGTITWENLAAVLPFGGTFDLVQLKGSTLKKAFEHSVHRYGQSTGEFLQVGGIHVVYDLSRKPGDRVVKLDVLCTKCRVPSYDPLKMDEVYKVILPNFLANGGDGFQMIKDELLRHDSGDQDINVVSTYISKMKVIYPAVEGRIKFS
Procedure: HEK cells were co-transfected with expression vectors for green fluorescent protein (GFP) and human CD73, mouse CD73, and a control cell surface protein (CD39). 48 h after transfection, cells were incubated with HEK cell supernatants containing the indicated rabbit IgG hcAbs. Bound antibodies were detected with PE-conjugated anti rabbit IgG secondary antibody.
• 5.1 Untransfected HEK293 cells and HEK293 cells stably transfected with human or mouse CD73 were incubated for 30 min with HEK-6E cell supernatants containing rabbit IgG hcAbs (diluted 1:10 in PBS/0.1% BSA). Following washing with PBS/0.1% BSA, bound antibodies were detected with PE-conjugated goat anti-rabbit IgG polyclonal antibody (711-116-152 Dianova, Hamburg). • 5.2 For dissociation analyses, two separate aliquots of CD73-transfected cells were incubated either with Cell Proliferation Dye eFluor 450 (eBioscience) or with hcAbs for 20 min at RT. Cells were washed four times, mixed at a 1:1 ratio and further incubated at RT for 120 min before staining of bound antibodies with PE-conjugated goat anti-rabbit IgG polyclonal antibody. The dissociation of hcAbs from the target cells and association with the eFluor 450 labeled cells was analyzed by flow cytometry using the FlowJo software (Treestar). • 5.3 For epitope analyses, cells were preincubated with excess human IgG hcAbs (10 μl HEK-6E cell supernatant/100 μl PBS/0.1% BSA) for 30 min at RT before addition of Nb-rabbit IgG hcAbs (1 μl HEK-6E cell supernatant/100 μl PBS/0.1% BSA) and further incubation for 20 min at RT and staining with PE-conjugated anti-rabbit polyclonal antibody (711-116-152 Dianova, Hamburg). Cells were washed and analyzed by flow cytometry on a BD-FACS Canto. Data were analyzed using the FlowJo software (Treestar).
The binding specificities of the purified hcAbs were determined by flow cytometry using HEK cells transiently co-transfected with expression vectors for GFP and either mouse CD73, human CD73 or a control protein (CD39). 1×10^6 cells were incubated with 10 μl of the Nb-rbIgG hcAb containing HEK-6E cell supernatants for 30 min at 4° C. After washing, the cells were incubated with PE-conjugated anti-rabbit IgG polyclonal antibody (711-116-152 Dianova, Hamburg) and washed twice. The cells were resuspended in PBS and analyzed by flow cytometry on FACS Canto or FACS Celesta (BD Biosciences, Heidelberg). Data evaluation was conducted using the software FlowJo (Treestar, Stanford, US).

[1] = biological target: T2, native CD73 on the cell surface of peripheral blood leukocytes (PBMCs) (Homo sapiens, UniProt P21589); assay: Flow cytometry binding of hcAbs to native CD73 on blood leukocytes; details: lymphocyte gate, co-stained for CD3 and CD19
T2 construct: endogenous in cells; host or cells: human PBMCs (B and T lymphocytes)
T2 sequence (P21589 27-549): T1 sequence (P21589 27-549)
Procedure: Purified hcAbs were analysed for binding to native CD73 on the cell surface of peripheral blood leukocytes (PBMCs) by flow cytometry. To this end purified human PBMCs were incubated for 30 min at RT with 10 μl of rabbit hcAb-containing HEK-6E cell supernatants and bound antibodies were detected with a FITC conjugated anti rabbit IgG secondary antibody. To distinguish between B lymphocytes most of which express high levels of cell surface CD73, and T lymphocytes a subset of which express moderate levels of cell surface CD73, cells were co-stained with PE-conjugated mouse anti-human CD3 mAb (UCHT1) and a PerCP/Cy5.5-conjugated mouse anti-human CD19 mAb (HIB19). After washing the cells, cells were analyzed by flow cytometry. A hcAb binding only to murine CD39 (SB30) was used as a negative control. […] Gating was performed on lymphocytes on the basis of forward and side scattered light.

soluble human CD73 [2] = biological target: T3, soluble human CD73 (Homo sapiens, UniProt P21589); assay: Off-rates of soluble CD73 from immobilized Nb-rbIgG hcAb on Octet BLI; type: binding; details: soluble human CD73 ectodomain 200 ng/μl as analyte; Nb-rbIgG hcAb immobilized on protein A biosensor
T3 construct: The ectodomain of CD73 (aa 27-549) was expressed as a recombinant protein with a C-terminal His6× tag; His6 (C); made in house; host or cells: transiently transfected HEK cells
T3 sequence (P21589 27-549): T1 sequence (P21589 27-549)

[3] = biological target: T4, CD73-expressing human AML-OCI3 cells (Homo sapiens, UniProt P21589); assay: AMP degradation by cell bound CD73, luminometric AMPglow assay; type: cell-based; details: CD73 expressed on the cell surface of OCI-AML3 cells; compared with dimeric SB116 or SB188 Fc constructs
T4 construct: CD73-expressing human AML-OCI3 cells (AML cell line); endogenous in cells; host or cells: OCI-AML3 human AML cell line
T4 sequence (P21589 27-549): T1 sequence (P21589 27-549)
Procedure: AMP was added and AMP degradation was measured using the luminometric AMPglow assay. Data analyses were performed using Prism (Graphpad).
(§1) Soluble recombinant human CD73 or CD73-expressing human […] cells were incubated with CD73-specific dimeric clones SB116-rbFc, SB188-rbFc, biparatopic SB116-188-Alb trimers or with non-binding L-10e-rbFc clone (control). AMP was added and AMP degradation was measured using the luminometric AMPglow assay. Data analyses were performed using Prism (Graphpad).

soluble human CD73 [4] = biological target: T3, soluble human CD73; assay: AMP degradation by soluble CD73, luminometric AMPglow assay; type: biochemical; details: CD73 present as soluble enzyme; compared with dimeric SB116 or SB188 Fc constructs
Procedure: as §1

Row | Molecule | specificity (human CD73) | staining of native CD73 on human PBMCs [1] | Kdis (soluble human CD73 [2]) | blockade of CD73-mediated AMP degradation [3] | blockade of CD73-mediated AMP degradation (soluble human CD73 [4])
1 | B1 | h | on most B cells and on a subset of T cells | 0.00036 s⁻¹ | – | –
2 | B2 | – | – | – | less potent compared to dimeric SB116 or SB188 Fc constructs | enhanced blockade of CD73-mediated AMP degradation when compared to dimeric SB116 or SB188 Fc constructs
